The target in assay [1] is native sulfated human cationic trypsin purified from pancreatic juice (human). Nature of the assay: equilibrium binding assay; equilibrium dissociation constant of ecotin on human trypsins, 15 h of incubation; further conditions not told for ecotin.
Assay [2] deals with nonsulfated human cationic trypsin purified from E. coli (human). The description is as above.

Usually Kd stands for a measure of binding affinity in units of concentration. Lower therefore signals a tighter complex. In the case of “ecotin (from UniProt P23827 21-162) (natural protein)”, the Kd in assay [1] amounted to 5.6 pM; in assay [2] it was 8.1 pM.
